Reference: patent US20170319643A1

Target: elastase (porcine pancreas, Sigma Aldrich) (porcine) (UniProt P00772)
Experiment: cell-based or functional assay

elastase (porcine pancreas, Sigma Aldrich) (porcine), sequence (P00772 27-266): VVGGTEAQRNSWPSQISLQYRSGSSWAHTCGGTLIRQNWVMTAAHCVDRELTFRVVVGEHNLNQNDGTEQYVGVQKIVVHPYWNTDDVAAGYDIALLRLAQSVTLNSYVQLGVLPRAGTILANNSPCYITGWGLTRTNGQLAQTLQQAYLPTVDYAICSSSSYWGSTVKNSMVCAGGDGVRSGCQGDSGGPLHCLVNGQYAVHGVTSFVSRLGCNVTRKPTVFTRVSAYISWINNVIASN
alpha-1-antitrypsin enriched native human HDL, sequence (P01009 25-418): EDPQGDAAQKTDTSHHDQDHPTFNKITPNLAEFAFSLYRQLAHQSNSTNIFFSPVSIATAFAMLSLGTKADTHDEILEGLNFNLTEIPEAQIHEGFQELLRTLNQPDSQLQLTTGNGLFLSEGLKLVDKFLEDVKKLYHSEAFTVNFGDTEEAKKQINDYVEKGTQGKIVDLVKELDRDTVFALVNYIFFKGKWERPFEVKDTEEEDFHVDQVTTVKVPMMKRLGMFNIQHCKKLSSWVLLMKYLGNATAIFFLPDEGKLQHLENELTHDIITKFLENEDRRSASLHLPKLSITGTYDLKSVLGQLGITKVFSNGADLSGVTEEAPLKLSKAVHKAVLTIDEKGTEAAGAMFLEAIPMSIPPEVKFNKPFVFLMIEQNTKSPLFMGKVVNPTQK

elastase induced TNF-α production by J774 macrophages, change compared to PBS pretreatment: -97%
Substance: alpha-1-antitrypsin enriched native human HDL (from UniProt P01009 25-418)
